This data set addresses T1, TbTRF Myb domain (Trypanosoma brucei, UniProt Q4VHG6 281-382).
T1 sequence: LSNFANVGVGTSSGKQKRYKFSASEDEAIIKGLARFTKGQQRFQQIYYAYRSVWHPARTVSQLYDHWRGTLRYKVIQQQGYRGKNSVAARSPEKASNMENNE
The data set can be described thus: ITC. (In general: Isothermal titration calorimetry measures the heat released or taken up as one component is titrated into another.)

B1: regular 13-mer telomeric oligo (dsDNA)
DNA 1: GGTTAGGGTTAGG
DNA 2: CCTAACCCTAACC
Regarding B1, the binding result is “binds”.

Values taken from paper PMC4227783.
